“Also recorded” adds a separate entry of the source.
Legend:
full length human N-WASP = biological target: T1, full length human N-WASP (Homo sapiens, UniProt O00401); test: Pyrene-actin polymerization assay: activation of full length N-WASP by upstream regulators; type: biochemical; conditions: for activation of FL-N-WASP (in words): Arp2/3 4.0 nM, actin 3.5 μM; for Barbed ends % of max.** (N-WASP): after subtracting baseline (WASP without activators); for Barbed ends, nM* (N-WASP): total concentration of Arp2/3 complex in the assay is 4.2 nM; for EC50: activation of N-WASP
T1 construct: Full length human WASP and N-WASP were TAP-tagged; Myc (N); made in house; host or cells: human 293 cells (Freestyle 293-F), transient transfection; insert amplified from HeLa total RNA
Procedure: (§1) Samples containing candidate agents (individually or as mixtures) are placed into wells on a multi-well plate. Mix 1 is added to each of the wells and mixed with the candidate agent. A sample of Mix 2 is then introduced into each well and the resulting mixture thoroughly mixed. Typically, Mix 1 and Mix 2 are mixed in 1:1 ratio (e.g., 50 μl each of Mix 1 and Mix 2).
(§2) Actin polymerization is measured as a function of time by exciting pyrene at 365 nm and by detecting an increase in fluorescence emission at 407 nm, or by exciting acrylodan at 405 nm and by detecting an increase in fluorescence emission at 460 nm. The change in fluorescence over time is utilized to determine a fluorescence parameter (e.g., maximal velocity, time to half maximal fluorescence intensity, or area under the curve of a plot of fluorescence versus time; see e.g., FIGS. 5A-5F).
(§3) Full length human WASP and N-WASP were TAP-tagged (Rigaut, et al. (1999) Nat. Biotechnology 17:1030, which is incorporated herein by reference in its entirety for all purposes) at the C-terminus (see, also Examples 2 and 3). The recombinant WASP and N-WASP were expressed in human 293 cells and then purified using a TAP-tag protocol as described in Example 6.
(§4) Arp2/3 was purified as described in Example 1.
Arp2/3 and actin concentrations were as described for the third experiment.
Another set of experiments similar to the fifth set were conducted using FL-N-WASP.

full length human WASP = biological target: T2, full length human WASP (Homo sapiens, UniProt P42768); test: Pyrene-actin polymerization assay: activation of full length WASP by upstream regulators; type: biochemical; conditions: for activation of FL-WASP (in words): Arp2/3 4.0 nM, actin 3.5 μM; for Barbed ends % of max.** (WASP): after subtracting baseline (WASP without activators); for Barbed ends, nM* (WASP): total concentration of Arp2/3 complex in the assay is 4.2 nM; for EC50: activation of WASP; for acceleration of actin polymerization by the activator: FL-WASP
T2 construct: Full length human WASP and N-WASP were TAP-tagged; Myc (N); made in house; host or cells: human 293 cells (Freestyle 293-F), transient transfection
T2 sequence (P42768 1-502): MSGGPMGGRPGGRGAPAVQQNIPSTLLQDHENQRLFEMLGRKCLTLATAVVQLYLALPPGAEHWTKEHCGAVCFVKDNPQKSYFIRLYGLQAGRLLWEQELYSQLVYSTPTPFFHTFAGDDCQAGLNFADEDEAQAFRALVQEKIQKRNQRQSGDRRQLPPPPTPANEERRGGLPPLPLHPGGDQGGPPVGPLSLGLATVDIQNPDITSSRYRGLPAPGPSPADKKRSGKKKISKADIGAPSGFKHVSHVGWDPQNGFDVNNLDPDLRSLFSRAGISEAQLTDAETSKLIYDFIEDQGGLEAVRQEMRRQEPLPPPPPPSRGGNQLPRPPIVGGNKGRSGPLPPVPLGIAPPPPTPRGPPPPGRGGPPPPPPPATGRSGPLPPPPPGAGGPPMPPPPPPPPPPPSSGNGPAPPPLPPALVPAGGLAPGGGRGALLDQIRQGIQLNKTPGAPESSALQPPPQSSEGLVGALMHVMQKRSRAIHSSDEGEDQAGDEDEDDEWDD
Procedure: as §1, §2, §3
Arp2/3 was purified as described in Example 1. […]
The effect of PIP2 on the ability of upstream regulators to regulate FL-WASP was evaluated in a fifth set of experiments. The results are depicted in graphical format in FIG. 11.

Arp2/3 = test: Activities of WASP/N-WASP proteins (Table 4); type: biochemical
Excerpt: The term “variant” or “analogue” generally refers to proteins that are functional equivalents to a native sequence that have similar amino acid sequences and retain, to some extent, one of the activities of the corresponding native protein. Variants/analogues include fragments that retain one or more activities of the corresponding native protein. Examples of WASP and N-WASP activity include, but are not limited to, capacity to: 1) bind Arp2/3 and actin; 2) activate the actin nucleation activity of Arp2/3 (descriptions of assays to detect nucleation activity are provided below); 3) bind an upstream regulator; 4) be regulated by one or more upstream regulators, thereby rendering the WASP or N-WASP protein able to activate the nucleation activity of Arp2/3; and 5) bind downstream regulators initiating signal transduction cascades. Some of the WASP and N-WASP proteins that are provided are able to recapitulate the full activity of WASP or N-WASP, which means that these proteins have all five of the activities just listed. […]
A third class of NPF proteins that can be utilized in some assays include WASP, N-WASP and SCAR proteins that include the WH1 domain but in which the PolyPro region is (e.g., deleted). A fourth class of NPF proteins that can be utilized in some assays are WASP, N-WASP and SCAR deletion mutants in which the PolyPro region is maintained but an N-terminal region (e.g., WH1 domain) is at least partially removed. Some proteins in this class are ones that include the B, CRIB/GBD (WASP and N-WASP), PolyPro and VCA domains, but in which some or all of the WH1 has been removed. One specific example is 98N-WASP, which includes amino acids 98-501 of SEQ ID NO:4. Another specific example is the 105WASP protein, which includes amino acids 105-501 of SEQ ID NO:2 (see FIG. 4B).
As indicated in this table, specific examples of fusion proteins that can be utilized include those that include a segment that encodes full-length WASP or N-WASP, including: Myc-WASP-TAP (SEQ ID NO:14); and Myc-N-WASP-TAP (SEQ ID NO: 16). Examples of fusion proteins that include a WASP or N-WASP deletion mutant domain include: GST-105WASP (SEQ ID NO:18); Myc-105WASP-TAP (SEQ ID NO:20); GST-tev-98N-WASP (SEQ ID NO:22); and Myc-98N-WASP-TAP (SEQ ID NO:24). The TAP tag in these particular fusion proteins has the general structure CBP-tev-ProtA (SEQ ID NO:36). Fusion proteins such as those listed in Table 4 can in some instances be utilized directly, or after one or both of the C- and N-terminal tags are removed. For example, the fusion proteins listed in Table 4 as having a TAP tag can be used once the TAP tag has been cleaved off and/or after the C-terminal tag has been removed.

[1] = Solubility of purified full-length WASP / N-WASP; type: physicochemical; conditions: purified TAP-tag protein from 293 cells
Arp2/3 complex = biological target: T3, Arp2/3 complex; test: Actin polymerization assay comparing FL-WASP/N-WASP and truncated forms of WASP; type: biochemical, human
T3 construct: from tissue
Procedure: 1. A cellular extract containing Arp2/3 complex was prepared from an Arp2/3 source such as human platelets (see, e.g., U.S. Provisional Application No. 60/578,969, filed Jun. 10, 2004; Welch and Mitchison (Meth. Enzymology 298:52-61,1988); and Higgs, H. N. et al. (Biochemistry 38:15212-15222, 1999), all of which are incorporated herein by reference in their entirety for all purposes).
as §1, §2, §4
In a second set of experiments, the ability of various truncated forms of WASP were compared to the activity of the full-length protein. […] FL-WASP, 105 WASP and the VCA (see Example 2) domain were tested. The results of these trials were plotted to obtain EC50 values. The results are provided in FIG. 8 and in the chart below.

T1 sequence (O00401 whole entry Y76H/A201G/F223S/S242L/D248E/S252L/N296S/A333E): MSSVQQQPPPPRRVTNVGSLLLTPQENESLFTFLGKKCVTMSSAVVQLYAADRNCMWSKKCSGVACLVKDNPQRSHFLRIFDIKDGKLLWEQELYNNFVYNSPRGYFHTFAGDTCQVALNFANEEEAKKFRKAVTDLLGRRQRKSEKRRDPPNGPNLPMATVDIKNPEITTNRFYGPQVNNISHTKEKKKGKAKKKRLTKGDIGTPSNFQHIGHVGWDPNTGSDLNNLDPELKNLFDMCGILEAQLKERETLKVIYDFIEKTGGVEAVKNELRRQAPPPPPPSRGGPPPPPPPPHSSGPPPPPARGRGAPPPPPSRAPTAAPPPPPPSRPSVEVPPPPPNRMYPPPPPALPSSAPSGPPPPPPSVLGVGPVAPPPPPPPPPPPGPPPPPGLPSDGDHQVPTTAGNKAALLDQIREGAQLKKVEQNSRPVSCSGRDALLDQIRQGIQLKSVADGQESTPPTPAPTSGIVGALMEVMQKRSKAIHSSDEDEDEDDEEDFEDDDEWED

Substance: phosphatidylinositol-4,5-bisphosphate [PIP2, reference compound]
- effect of PIP2 on Nck stimulated activation of N-WASP (full length human N-WASP; Nck present, FIG. 12): inhibited; also recorded: inhibitory effect
- effect of PIP2 on N-WASP activation by Rac1 or Cdc42 (full length human N-WASP; small GTPases present, FIG. 12): marked synergistic effect; also recorded: synergistically; also recorded: marked synergestic effect
- effect of PIP2 on FL-WASP (full length human WASP; in the absence of small GTPases or Nck, FIG. 11): no effect; also recorded: minimal, if any, effect
- effect of PIP2 on WASP stimulated actin polymerization (full length human WASP; in the presence of small GTPases or Nck, FIG. 11): strong inhibitory effect

Substance: Myc-N-WASP-TAP: fusion protein of full-length N-WASP (SEQ ID NO:16)
- Activate Arp2/3? (Arp2/3): Yes
- Regulated By Which Upstream Regulators? (Arp2/3): Cdc42, PIP2, Nck and Rac1

Substance: Myc-WASP-TAP: fusion protein of full-length WASP (SEQ ID NO:14)
- Activate Arp2/3? (Arp2/3): Yes
- Regulated By Which Upstream Regulators? (Arp2/3): Cdc42, PIP2, Nck and Rac1

Substance: RhoA: GTPase, GST-tev-RhoA (SEQ ID NO:30)
- activation of FL-N-WASP (in words) (full length human N-WASP; FIG. 10): could not activate
- activation of FL-WASP (in words) (full length human WASP; FIG. 9): could not activate

Substance: RhoC: GTPase, GST-tev-RhoC (SEQ ID NO:28)
- activation of FL-N-WASP (in words) (full length human N-WASP; FIG. 10): could not activate
- activation of FL-WASP (in words) (full length human WASP; FIG. 9): could not activate

Substance: FL-WASP: full length human WASP (SEQ ID NO:2), nucleation promoting factor
- Activate Arp2/3? (Arp2/3): Yes
- Regulated By Which Upstream Regulators? (Arp2/3): Cdc42, PIP2, Nck and Rac1
- solubility (in words) [1]: completely soluble
- potency as Arp2/3 complex activator compared with truncated derivatives (in words) (Arp2/3 complex): more potent Arp2/3 complex activator than certain truncated derivatives
- concentration that stimulated production of maximal concentration of barbed ends (Arp2/3 complex; 500 nM Cdc42, 2.5 nm Arp2/3 complex, 3.5 μM actin): 3 nM
- activity of FL-WASP relative to 105 WASP (Arp2/3 complex; 500 nM Cdc42, 2.5 nm Arp2/3 complex, 3.5 μM actin, FIG. 8): approximately 20 times
- stimulation of actin polymerization by the protein alone (in words) (Arp2/3 complex; without activators, FIG. 7): weakly stimulate actin polymerization

Substance: Nck2: upstream regulator, GST-tagged (SEQ ID NO:46)
- activation of FL-N-WASP (in words) (full length human N-WASP; FIG. 10): can stimulate production of maximal concentration of barbed ends
- relative potency as N-WASP activator (in words) (full length human N-WASP; FIG. 10, Rac1 vs Cdc42 in the absence of PIP2 vesicles): significantly better activator of N-WASP than WASP; also recorded: most powerful activators
- dose dependence of N-WASP activation (in words) (full length human N-WASP; FIG. 10, inhibition at higher concentrations): bell shaped dose dependence curve; also recorded: inhibited
- Barbed ends % of max.** (N-WASP) (full length human N-WASP; N-WASP): 78 % of max.
- Barbed ends, nM* (N-WASP) (full length human N-WASP; N-WASP): 3.5 nM
- EC50 (full length human N-WASP): 7 nM
- relative potency as WASP activator (in words) (full length human WASP; FIG. 9): most powerful activators
- dose dependence of WASP activation / barbed end concentration (in words) (full length human WASP; FIG. 9, inhibition at higher concentrations): bell shaped dependence; also recorded: inhibited
- Barbed ends % of max.** (WASP) (full length human WASP): 50 % of max.
- Barbed ends, nM* (WASP) (full length human WASP): 2.6 nM
- EC50 (full length human WASP): 12 nM

Substance: Cdc42: Rho-family GTPase upstream regulator, GST-tagged (SEQ ID NO:26)
- acceleration of actin polymerization by the activator (full length human N-WASP; FL-N-WASP, FIG. 7 legend): 13 times
- acceleration of actin polymerization by the activator (full length human N-WASP; N-WASP, FIG. 7): 13 fold
- Barbed ends % of max.** (N-WASP) (full length human N-WASP; N-WASP): 9 % of max.
- Barbed ends, nM* (N-WASP) (full length human N-WASP; N-WASP): 1.3 nM
- EC50 (full length human N-WASP): 287 nM
- activation of FL-WASP (in words) (full length human WASP; FIG. 9): fully activates FL-WASP; also recorded: can fully activate FL-WASP
- relative potency as WASP activator (in words) (full length human WASP; FIG. 9): more effective on WASP-stimulated actin nucleation by Arp2/3 complex than on N-WASP-stimulated actin nucleation
- acceleration of actin polymerization by the activator (full length human WASP; FIG. 7): 13 fold
- acceleration of actin polymerization by the activator (full length human WASP; FIG. 7 legend): 13 times
- Barbed ends % of max.** (WASP) (full length human WASP): 87 % of max.
- Barbed ends, nM* (WASP) (full length human WASP): 3.8 nM
- EC50 (full length human WASP): 16 nM

Substance: N-WASP VCA Domain: VCA domain of N-WASP (SEQ ID NO:8)
- Activate Arp2/3? (Arp2/3): Yes
- Regulated By Which Upstream Regulators? (Arp2/3): None

Source: patent US20060003399A1, “High throughput actin polymerization assay” (Cytokinetics, Inc., priority 2004, published 2006)
